Assay results taken from patent US20170101472A1.

Tests used:
[1] = target: HEK293-hLAG3 and HEK293-mfLAG3 cells; test: cell binding assay of Table 12, LAG3-expressing HEK293 cells against parental HEK293 cells
[2] = target: cynomolgus LAG3 on activated CD4+ and CD8+ cynomolgus T cells (cynomolgus); test: FACS, stimulated cynomolgus CD4+ T cells, donor 1

| ratio of binding above the HEK293 parental cells [1] | Ratio of MFI (11 nM/0 nM) [2] | Substance |
| --- | --- | --- |
| 0.7 to 1.1 fold |  | H4H isotype control and the H4sH isotype control |
|  | 1 | hIgG4 isotype control (antibody) |
